Results as given in IntAct's records for PubMed 10854325.

B1: Interleukin-1 receptor-associated kinase 1 (Mus musculus), Q62406 (parent)
chain: MAGGPGPGEPVVPGAQHFLYEVPPWVMCRFYKVMDALEPADWCQFAALIVRDQTELRLCERSEQRTASVLWPWINRNARVADLVHILTHLQLLRARDIITAWHPPAPVVPPSTAAPRPSSISAGSEAGDWSPRKLQSSASTFLSPAFPGSQTHSESELLQVPLPVSLGPPLPSSAPSSTKSSPESPVSGLQRAHPSPFCWPFCEISQGTCNFSEELRIGEGGFGCVYRAVMRNTTYAVKRLKEEADLEWTMVKQSFLTEVEQLSRFRHPNIVDFAGYCAESGLYCLVYGFLPNGSLEDQLHLQTQACSPLSWPQRLDILLGTARAIQFLHQDSPSLIHGDIKSSNVLLDERLMPKLGDFGLARFSRFAGAKASQSSTVARTSTVRGTLAYLPEEYIKTGRLAVDTDTFSFGVVILETLAGQRAVRTQGAKTKYLKDLIEDEAEEAGVTLKSTQPTLWVGVATDAWAAPIAAQIYKKHLDSRPGPCPPQLGLALAQLACCCMHRRAKKRPPMTQVYKRLEGLQAGPPWELEVAGHGSPSPQENSYMSTTGSAQSGDEPWQPLVVTTRAPAQAAQQLQRSPNQPVESDESVPGLSATLHSWHLTPGSHPSPASFREASCTQGGTTRESSVRSSPGFQPTTMEGSPTGSSSLLSSEPPQIIINPARQKMVQKLALYEEGVLDSLQLLSSGFFPGLDLEPEKSQGPEESDEFQS

Variants of: B1
Conditions: with tolip_mouse Tollip

| effect of a mutation on the interaction | Variant |
| --- | --- |
| decreasing interaction | T66A |
